Experimental data as given in patent publication US20100222258A1 (KABUSHIKI KAISHA HAYASHIBARA SEIBUTSU KAGAKU KENKYUJO, published 2010).
Numbering of substitutions follows the chain as printed.

T1: TNF-R2 (a protein having the amino acid sequence, Accession No. M55994 registered at GENBANK) (UniProt P20333 23-257, limits assumed)
T1 construct: also called TNF receptor with 75 kilo daltons
T1 sequence (looked up): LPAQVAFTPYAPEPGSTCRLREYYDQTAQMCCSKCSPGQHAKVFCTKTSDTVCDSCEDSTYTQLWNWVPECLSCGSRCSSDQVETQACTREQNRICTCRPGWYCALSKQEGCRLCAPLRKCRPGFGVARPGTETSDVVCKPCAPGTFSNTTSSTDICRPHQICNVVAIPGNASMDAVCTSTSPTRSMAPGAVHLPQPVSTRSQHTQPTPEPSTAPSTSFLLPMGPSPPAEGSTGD

T2: TNF-R1 on HEp-2 cells (human, UniProt P19438 30-455)
T2 sequence (looked up): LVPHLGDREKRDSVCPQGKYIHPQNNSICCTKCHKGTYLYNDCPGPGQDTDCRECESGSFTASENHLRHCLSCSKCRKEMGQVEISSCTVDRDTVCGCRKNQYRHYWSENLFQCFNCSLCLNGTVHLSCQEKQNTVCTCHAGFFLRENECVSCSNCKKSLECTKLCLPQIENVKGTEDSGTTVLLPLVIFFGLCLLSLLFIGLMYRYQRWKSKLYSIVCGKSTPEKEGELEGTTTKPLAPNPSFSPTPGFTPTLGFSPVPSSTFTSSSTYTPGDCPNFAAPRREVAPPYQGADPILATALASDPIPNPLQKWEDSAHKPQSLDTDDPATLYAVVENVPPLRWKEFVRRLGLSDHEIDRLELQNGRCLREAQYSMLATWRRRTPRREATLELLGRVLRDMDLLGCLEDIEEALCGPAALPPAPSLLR

T3: TNF-R1 on L-M cells (mouse, UniProt P25118 30-454)
T3 sequence (looked up): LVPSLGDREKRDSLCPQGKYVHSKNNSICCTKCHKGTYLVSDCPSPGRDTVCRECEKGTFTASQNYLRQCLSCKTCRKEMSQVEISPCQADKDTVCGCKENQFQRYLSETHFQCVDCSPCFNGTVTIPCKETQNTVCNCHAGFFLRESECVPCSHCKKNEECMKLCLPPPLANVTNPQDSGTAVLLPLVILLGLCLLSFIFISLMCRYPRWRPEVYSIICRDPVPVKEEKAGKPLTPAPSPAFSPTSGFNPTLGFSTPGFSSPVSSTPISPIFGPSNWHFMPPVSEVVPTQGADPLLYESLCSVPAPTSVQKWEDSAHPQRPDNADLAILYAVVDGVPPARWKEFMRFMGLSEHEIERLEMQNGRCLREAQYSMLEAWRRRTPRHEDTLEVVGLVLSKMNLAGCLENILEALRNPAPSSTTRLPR

T4: TNF-R1 (a protein having the amino acid sequence, Accession No. M58286 registered at GENBANK) (UniProt P19438 30-211, limits assumed)
T4 construct: also called TNF receptor having a molecular weight of 55 kilo daltons
T4 sequence (looked up): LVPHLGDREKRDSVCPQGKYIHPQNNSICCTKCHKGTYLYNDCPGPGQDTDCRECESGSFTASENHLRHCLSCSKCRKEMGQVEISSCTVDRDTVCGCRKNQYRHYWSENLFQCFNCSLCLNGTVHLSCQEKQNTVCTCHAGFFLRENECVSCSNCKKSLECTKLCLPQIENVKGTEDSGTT

B1: TNF mutant protein of clone No. 6 (ligand)
chain: VRSSSRTPSDMPVAHVVANPQAEGQLQWSNRYANALLANGVELRDNQLVVPSEGLYLIYSQVLFSGQGCPSTHVLLTHTISRIAVSYQTPVNLLSAIRSPCQRETPEGAEANPWYEPIYLGGVFQLEPGDRLSAEINRPDYLDFSM
notes: Mutant of lysine-replaced TNF, made in E. coli; stop codon at position 147
B2: TNF mutant protein of clone No. 1 (ligand)
chain: VRSSSRTPSDMPVAHVVANPQAEGQLQWQNRWANALLANGVELRDNQLVVPSEGLYLIYSQVLFSGQGCPSTHVLLTHTISRIAVSYQTPVNLLSAIRSPCQRETPEGAEANPWYEPIYLGGVFQLEPGDRLSAEINRPDYLDFAESGQVYFGIIAL
notes: Mutant of lysine-replaced TNF, made in E. coli
B3: TNF mutant protein of clone No. 38 (ligand)
chain: B2 chain with Q29L, W32R, A84G, V85G, S86P, T89R
notes: Mutant of lysine-replaced TNF, made in E. coli; also called TNF antagonist of clone No. 38
B4: TNF mutant protein of clone No. 26 (ligand)
chain: B2 chain with Q29L, W32R, A84S, V85S, S86H, Q88R, T89F
notes: as for B2
B5: TNF mutant protein of clone No. 28 (ligand)
chain: B2 chain with Q29L, W32R, A84T, V85K, Q88S, T89K
notes: as for B2
B6: TNF mutant protein of clone No. 17 (ligand)
chain: B2 chain with Q29L, W32R, A84S, V85K, S86T, Q88T, T89H
notes: as for B2
B7: TNF mutant protein of clone No. 3 (ligand)
chain: B2 chain with Q29L, R31S, W32D, E146A, S147R
notes: as for B2
B8: TNF mutant protein of clone No. 36 (ligand)
chain: B2 chain with Q29L, W32R, V85P, S86G, Q88S, T89H
notes: Mutant of lysine-replaced TNF, made in E. coli; also called TNF antagonist of clone No. 36
B9: TNF mutant protein of clone No. 37 (ligand)
chain: B2 chain with Q29L, W32R, A84S, V85T, S86T, Y87H, Q88N, T89Q
notes: Mutant of lysine-replaced TNF, made in E. coli; also called TNF antagonist of clone No. 37
B10: TNF mutant protein of clone No. 19 (ligand)
chain: B2 chain with Q29L, W32R, A84S, V85Y, S86N, Q88N, T89G
notes: as for B2
B11: TNF mutant protein of clone No. 25 (ligand)
chain: B2 chain with Q29L, W32R, A84S, V85K, S86T, Q88S, T89H
notes: as for B2
B12: TNF mutant protein of clone No. 33 (ligand)
chain: B2 chain with Q29L, W32R, A84N, V85H, S86R, T89D
notes: as for B2
B13: TNF mutant protein of clone No. 22 (ligand)
chain: B2 chain with Q29L, W32R, A84S, V85R, S86V, Q88T, T89A
notes: as for B2
B14: TNF mutant protein of clone No. 21 (ligand)
chain: B2 chain with Q29L, W32R, A84T, V85S, S86A, Q88G, T89P
notes: as for B2
B15: TNF mutant protein of clone No. 29 (ligand)
chain: B2 chain with Q29L, W32R, A84T, V85E, S86Q, Q88S, T89H
notes: as for B2
B16: TNF mutant protein of clone No. 24 (ligand)
chain: B2 chain with Q29L, W32R, A84T, V85H, S86K, Q88P, T89Q
notes: as for B2
B17: TNF mutant protein of clone No. 23 (ligand)
chain: B2 chain with Q29L, W32R, A84T, V85T, S86A, Q88S, T89G
notes: as for B2
B18: TNF mutant protein of clone No. 18 (ligand)
chain: B2 chain with Q29L, W32R, A84S, V85P, S86L, Q88P, T89K
notes: as for B2

The binders below were run against T1, TNF-R2 (a protein having the amino acid …) (assay: SPR (BIACORE 2000), receptor on sensor tip; grade 1 = 0.001 to 0.1 time that of recombinant TNF-α).
Text: (§1) Using the above detector based on surface plasmon resonance effect again, the resulting clones binding to TNF-R1 (or TNF-R2) were subjected to the remaining sensor tip conjugated with TNF-R2 (or TNF-R1) to measure receptor binding affinity and select clones having a variation of receptor binding affinity. […] The resulting DNAs were digested with restrict enzymes NdeI and BamHI to obtain DNA fragments. The resulting DNA fragments were introduced into a plasmid vector containing T7 promoter region, T7 terminator region, ampicillin resistant gene region and ColE1/Ori region (product name “pET-3a”, manufactured by “Novagen®” (EMD Biosciences, Inc.)) at the position of the above restriction sites. The resulting plasmid was introduced into E. coli BL21DE3 strain to obtain a transformed E. coli for producing the TNF mutant proteins. The obtained transformed E. coli was cultured according to usual method and centrifuged to collect E. coli pellet. The resulting pellet was washed twice with TES buffer (pH 8.0) (20 mM Tris-HCl, 10 mM ethylene diamine tetraacetic acid and 0.5 M sodium chloride) and admixed with TES buffer (pH 8.0) containing 0.2 mg/ml lysozyme. The resulting suspension was sonicated according to usual manner, and centrifuged to collect a precipitate containing the produced TNF mutant protein. The resulting precipitate was treated three times in a manner of admixing with TES buffer containing 1 (w/w) % Triton X-100, removed from supernatant by centrifuging, admixed with 50 mM Tris-HCl (pH 7.0) containing 8 M guanidine hydrochloride and 50 mM dithiothreitol, with stirring for 16 hours at ambient temperature under shielded condition, and centrifuged to collect a supernatant. The resulting supernatant was gently admixed with 100 time volumes of a aqueous solution containing 1 M Tris, 0.9 (w/v) % sodium chloride, 0.4 M L-arginine chloride, 2.5 mM reduced glutathione, 0.5 mM oxidized glutathione and 0.05 (w/v) % Tween 20, and kept at 4° C. for 16 hours.

Row | Binder | binding affinity relative to recombinant TNF-α [fold]
1 | B1 | 0.001 to 0.1
2 | B2 | 0.001 to 0.1
3 | B3 | 0.001 to 0.1
4 | B4 | 0.001 to 0.1
5 | B5 | 0.001 to 0.1
6 | B6 | 0.001 to 0.1
7 | B7 | 0.001 to 0.1
8 | B8 | 0.001 to 0.1
9 | B9 | 0.001 to 0.1
10 | B10 | 0.001 to 0.1
11 | B11 | 0.001 to 0.1
12 | B12 | 0.001 to 0.1
13 | B13 | 0.001 to 0.1
14 | B14 | 0.001 to 0.1
15 | B15 | 0.001 to 0.1
16 | B16 | 0.001 to 0.1
17 | B17 | 0.001 to 0.1
18 | B18 | 0.001 to 0.1

The binders below were run against T2, TNF-R1 on HEp-2 cells (assay: cell-based or functional assay).

Row | Binder | Viability (%) of HEp-2 cells, 10 ng/ml TNF-α + 1,000 ng/ml TNF antagonist (9 without antagonist) [%] | Viability (%) of HEp-2 cells, 10 ng/ml TNF-α + 10,000 ng/ml TNF antagonist (9 without antagonist) [%] | Viability (%) of HEp-2 cells, 10 ng/ml TNF-α + 100,000 ng/ml TNF antagonist (9 without antagonist) [%] | Viability (%) of HEp-2 cells, 10 ng/ml TNF-α + 500,000 ng/ml TNF antagonist (9 without antagonist) [%]
19 | B3 | 11 | 22 | 72 | 95
20 | B8 | 12 | 13 | 38 | 74
21 | B9 | 11 | 18 | 43 | 75

What follows are binders tested against T3, TNF-R1 on L-M cells (assay: cell-based or functional assay).

Row | Binder | Viability (%) of L-M cells, 10 ng/ml TNF-α + 1,000 ng/ml TNF antagonist (17 without antagonist) [%] | Viability (%) of L-M cells, 10 ng/ml TNF-α + 10,000 ng/ml TNF antagonist (17 without antagonist) [%] | Viability (%) of L-M cells, 10 ng/ml TNF-α + 100,000 ng/ml TNF antagonist (17 without antagonist) [%] | Viability (%) of L-M cells, 10 ng/ml TNF-α + 500,000 ng/ml TNF antagonist (17 without antagonist) [%]
22 | B3 | 42 | 47 | 58 | 70
23 | B8 | 43 | 54 | 63 | 59
24 | B9 | 42 | 51 | 59 | 72

The binders below were run against T4, TNF-R1 (a protein having the amino acid …) (assay: SPR (BIACORE 2000), receptor on sensor tip; grade 3 = 0.5 to 2 times that of recombinant TNF-α).
Text: as §1

Row | Binder | binding affinity relative to recombinant TNF-α [fold]
25 | B1 | 0.5 to 2
26 | B2 | 0.5 to 2
27 | B3 | 0.5 to 2
28 | B5 | 0.5 to 2
29 | B6 | 0.5 to 2
30 | B7 | 0.5 to 2
31 | B8 | 0.5 to 2
32 | B9 | 0.5 to 2
33 | B13 | 0.5 to 2
34 | B15 | 0.5 to 2

Each binder was assayed against T4, TNF-R1 (a protein having the amino acid …) (assay: SPR (BIACORE 2000), receptor on sensor tip; grade 4 = two times or more that of recombinant TNF-α).
Text: as §1

Row | Binder | binding affinity relative to recombinant TNF-α [fold]
35 | B4 | ≥ 2
36 | B10 | ≥ 2
37 | B11 | ≥ 2
38 | B12 | ≥ 2
39 | B14 | ≥ 2
40 | B16 | ≥ 2
41 | B17 | ≥ 2
42 | B18 | ≥ 2
